Test results as given in article PMC12373997.

Molecular target: Taxol-stabilized microtubules polymerised from purified porcine brain tubulin (porcine) (UniProt P02550)
Assay: co-sedimentation; tubulin co-sedimentation: taxol-stabilized MTs (varied, α/β-tubulin heterodimer molarity) with 1 µM purified N-clamp, 0.25 mg/ml BSA, BRB80-MT buffer (80 mM PIPES, 1 mM MgCl2, 1 mM EGTA, 12.5% glycerol, pH 6.8), 20 min at room temperature, 200,000 g 10 min 27 °C; SDS-PAGE densitometry of pellet; apparent Kd from a quadratic fit

Kd [nM]	Binder
25500	D. melanogaster augmin N-clamp with Dgt6^3A-mut (K82A, R88A, K96A) (complex) chain 1: MSDAVDKMLAGMAANRQTMNRQLAKIDEIMERSNNTLLHIESNSKAFSQNVALSETQKMYNLRPEAEMTLSKILENFKLLMSSSDQREETYSALEGCLAYRHRVEHLGSSVRKLVALYDTVGQMKNSQEEQYASEDSP chain 2: MDRTIIAPWKAEEKEQSEKLHRKLQGLALVHPLPDELRKLIAWDMFLKPNQVAFVHVMHYLFRLLDPAEFKRRFFWPITDKASEANFASSTVEYLAHLNEKHQLHWANIKSYLVVMPGGMRFINFLLEFVGFVIQELIKQREKSLGLEAGTPNVSAKVMARQNAVMKEYASSYVVNLEENTALLRDKTQKIRRLMADLSADMGVPEEQLADDGFLDEFEATAALGVERVITQPTERKFDLEASLCGLKEAIDLFQVKQAENNQSKEAVEKALRGMRVLFDCDAVTEGDFYDPLGASKMDALLNGFNRISGTIAEQLDANDHYNESNAFVTTDLQALRVELSQSEVQLNNLLKKLNEPSKKDKGSANASGSARVQTLQPATPRFESVISSKFVSTPPIRIDMGGGGGRNAPVRLALQDDFNGKQFDALSNSLLAPAPPRSARKLKALDQSTGIDLNGTLNRSKINDPMQMLRTIHKNTSKVKAAPQANLSSLGSKWKQMQASFGFDEAPVPGAAVISPQTSPTDPSDPFTPLSGSECTRIERIPRTSENNTSLIAKSAAVIKVLEVSRNVLNLSTSPSGRLDALVPHTESHQQDVAPRLQLNDRTINDSLQLDPDFNIENDKNAFNVSHKFDFDQIGGEDDLQNISDSVLKDIIF chain 3: METNVDFSSISSKLYRKYAQHVRNLKDVCVSKTVMKPGAFFDSLQQMMEEEAAATTPPRDLSSVADYAELFKTLEEYPANLQKMPKKRELQRTNSTLLRGADESVAMGINTSNVSLSLTRLEEQRSAVDVYNDFKGFQRKLAKIYDEAAALDTTESIYKQKLTQLHGFAQQLEKLMPTGGESPPDAFTSEQQEKLLTIAANMEQLNYLRSNSLQLPNPNEILATGSLAARLEMFVEVLTYTLLQVSSYNMAMI chain 4: METPPTPTTTTPPSLTTEGTMDDIQYLLHLEAMRRFQEDSRNVKRQVEEQVRIWLDAKCEYQRDFGRLARLLKCGALQAAVDAHRVSDVNQVDQAAKDIASLRSKLGSDLRPAILDSNDVKQCLEHLNTTHKPRLNLCRQQREFAQNQEALRSLRTAVDGLENGMEMGMIQAMDRLVEDLLPPRETNN
1000	D. melanogaster augmin N-clamp with Msd5^Δ81–93 (loop deletion) (complex) chain 1: MSDAVDKMLAGMAANRQTMNRQLAKIDEIMERSNNTLLHIESNSKAFSQNVALSETQKMYNLRPEAEMTLSKILENFKLLMSSSDQREETYSALEGCLAYRHRVEHLGSSVRKLVALYDTVGQMKNSQEEQYASEDSP chain 2: MDRTIIAPWKAEEKEQSEKLHRKLQGLALVHPLPDELRKLIAWDMFLKPNQVAFVHVMHYLFRLLDPAEFKRRFFWPITDKKSEANFRSSTVEYLKHLNEKHQLHWANIKSYLVVMPGGMRFINFLLEFVGFVIQELIKQREKSLGLEAGTPNVSAKVMARQNAVMKEYASSYVVNLEENTALLRDKTQKIRRLMADLSADMGVPEEQLADDGFLDEFEATAALGVERVITQPTERKFDLEASLCGLKEAIDLFQVKQAENNQSKEAVEKALRGMRVLFDCDAVTEGDFYDPLGASKMDALLNGFNRISGTIAEQLDANDHYNESNAFVTTDLQALRVELSQSEVQLNNLLKKLNEPSKKDKGSANASGSARVQTLQPATPRFESVISSKFVSTPPIRIDMGGGGGRNAPVRLALQDDFNGKQFDALSNSLLAPAPPRSARKLKALDQSTGIDLNGTLNRSKINDPMQMLRTIHKNTSKVKAAPQANLSSLGSKWKQMQASFGFDEAPVPGAAVISPQTSPTDPSDPFTPLSGSECTRIERIPRTSENNTSLIAKSAAVIKVLEVSRNVLNLSTSPSGRLDALVPHTESHQQDVAPRLQLNDRTINDSLQLDPDFNIENDKNAFNVSHKFDFDQIGGEDDLQNISDSVLKDIIF chain 3: METNVDFSSISSKLYRKYAQHVRNLKDVCVSKTVMKPGAFFDSLQQMMEEEAAATTPPRDLSSVADYAELFKTLEEYPANNSTLLRGADESVAMGINTSNVSLSLTRLEEQRSAVDVYNDFKGFQRKLAKIYDEAAALDTTESIYKQKLTQLHGFAQQLEKLMPTGGESPPDAFTSEQQEKLLTIAANMEQLNYLRSNSLQLPNPNEILATGSLAARLEMFVEVLTYTLLQVSSYNMAMI chain 4: METPPTPTTTTPPSLTTEGTMDDIQYLLHLEAMRRFQEDSRNVKRQVEEQVRIWLDAKCEYQRDFGRLARLLKCGALQAAVDAHRVSDVNQVDQAAKDIASLRSKLGSDLRPAILDSNDVKQCLEHLNTTHKPRLNLCRQQREFAQNQEALRSLRTAVDGLENGMEMGMIQAMDRLVEDLLPPRETNN
400	D. melanogaster augmin N-clamp, wild type (Msd1, Dgt6, Msd5-EGFP-HIS8, Dgt4-HIS8) (complex) chain 1: MSDAVDKMLAGMAANRQTMNRQLAKIDEIMERSNNTLLHIESNSKAFSQNVALSETQKMYNLRPEAEMTLSKILENFKLLMSSSDQREETYSALEGCLAYRHRVEHLGSSVRKLVALYDTVGQMKNSQEEQYASEDSP chain 2: MDRTIIAPWKAEEKEQSEKLHRKLQGLALVHPLPDELRKLIAWDMFLKPNQVAFVHVMHYLFRLLDPAEFKRRFFWPITDKKSEANFRSSTVEYLKHLNEKHQLHWANIKSYLVVMPGGMRFINFLLEFVGFVIQELIKQREKSLGLEAGTPNVSAKVMARQNAVMKEYASSYVVNLEENTALLRDKTQKIRRLMADLSADMGVPEEQLADDGFLDEFEATAALGVERVITQPTERKFDLEASLCGLKEAIDLFQVKQAENNQSKEAVEKALRGMRVLFDCDAVTEGDFYDPLGASKMDALLNGFNRISGTIAEQLDANDHYNESNAFVTTDLQALRVELSQSEVQLNNLLKKLNEPSKKDKGSANASGSARVQTLQPATPRFESVISSKFVSTPPIRIDMGGGGGRNAPVRLALQDDFNGKQFDALSNSLLAPAPPRSARKLKALDQSTGIDLNGTLNRSKINDPMQMLRTIHKNTSKVKAAPQANLSSLGSKWKQMQASFGFDEAPVPGAAVISPQTSPTDPSDPFTPLSGSECTRIERIPRTSENNTSLIAKSAAVIKVLEVSRNVLNLSTSPSGRLDALVPHTESHQQDVAPRLQLNDRTINDSLQLDPDFNIENDKNAFNVSHKFDFDQIGGEDDLQNISDSVLKDIIF chain 3: METNVDFSSISSKLYRKYAQHVRNLKDVCVSKTVMKPGAFFDSLQQMMEEEAAATTPPRDLSSVADYAELFKTLEEYPANLQKMPKKRELQRTNSTLLRGADESVAMGINTSNVSLSLTRLEEQRSAVDVYNDFKGFQRKLAKIYDEAAALDTTESIYKQKLTQLHGFAQQLEKLMPTGGESPPDAFTSEQQEKLLTIAANMEQLNYLRSNSLQLPNPNEILATGSLAARLEMFVEVLTYTLLQVSSYNMAMI chain 4: METPPTPTTTTPPSLTTEGTMDDIQYLLHLEAMRRFQEDSRNVKRQVEEQVRIWLDAKCEYQRDFGRLARLLKCGALQAAVDAHRVSDVNQVDQAAKDIASLRSKLGSDLRPAILDSNDVKQCLEHLNTTHKPRLNLCRQQREFAQNQEALRSLRTAVDGLENGMEMGMIQAMDRLVEDLLPPRETNN
